Legend:
[1] = molecular target: T1, mKO-PBP2^L61R (E. coli, UniProt P0AD65 1-633, L61R); assay: FRET or BRET; two-plasmid spectral FRET in E. coli LMC500 cells; mCherry fusion as acceptor, mKO fusion as donor; Gb4 medium, steady state at 28 C, 15 uM IPTG for two mass doublings, FAGA-fixed; acceptor FRET efficiency (EfA) by spectral unmixing; conditions: partners not purified
T1 construct: PBP2 of E. coli with L61R (hyperactive variant); made from pWA004 by mutagenesis PCR; also called hyperactive PBP2^L61R; source: E. coli LMC500, expressed from plasmid (15 uM IPTG), in fixed cells; not shown: mKO, N-terminal, kept
T1 sequence (looked up): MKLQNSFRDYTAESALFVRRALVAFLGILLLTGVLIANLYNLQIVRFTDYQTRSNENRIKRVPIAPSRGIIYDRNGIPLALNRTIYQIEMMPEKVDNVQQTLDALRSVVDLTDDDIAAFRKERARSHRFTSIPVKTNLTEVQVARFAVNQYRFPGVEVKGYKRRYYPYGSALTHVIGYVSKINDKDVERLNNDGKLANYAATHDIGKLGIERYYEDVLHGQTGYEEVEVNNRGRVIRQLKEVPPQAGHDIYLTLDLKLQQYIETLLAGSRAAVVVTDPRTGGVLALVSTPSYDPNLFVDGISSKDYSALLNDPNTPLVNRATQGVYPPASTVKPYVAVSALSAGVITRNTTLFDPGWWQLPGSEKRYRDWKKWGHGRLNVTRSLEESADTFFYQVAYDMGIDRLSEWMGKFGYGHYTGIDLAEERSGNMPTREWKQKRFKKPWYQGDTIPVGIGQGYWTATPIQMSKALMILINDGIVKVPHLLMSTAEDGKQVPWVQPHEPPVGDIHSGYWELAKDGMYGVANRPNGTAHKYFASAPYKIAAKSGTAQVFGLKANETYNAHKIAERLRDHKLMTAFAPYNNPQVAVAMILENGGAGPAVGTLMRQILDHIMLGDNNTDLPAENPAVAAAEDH

[2] = molecular target: T2, mKO-PBP2^S330C (E. coli, UniProt P0AD65 1-633, S330C); assay: as above; conditions: partners not purified
T2 construct: made from pWA004 by mutagenesis PCR; source: E. coli LMC500, expressed from plasmid (15 uM IPTG), in fixed cells; not shown: mKO, N-terminal, kept
T2 sequence (looked up): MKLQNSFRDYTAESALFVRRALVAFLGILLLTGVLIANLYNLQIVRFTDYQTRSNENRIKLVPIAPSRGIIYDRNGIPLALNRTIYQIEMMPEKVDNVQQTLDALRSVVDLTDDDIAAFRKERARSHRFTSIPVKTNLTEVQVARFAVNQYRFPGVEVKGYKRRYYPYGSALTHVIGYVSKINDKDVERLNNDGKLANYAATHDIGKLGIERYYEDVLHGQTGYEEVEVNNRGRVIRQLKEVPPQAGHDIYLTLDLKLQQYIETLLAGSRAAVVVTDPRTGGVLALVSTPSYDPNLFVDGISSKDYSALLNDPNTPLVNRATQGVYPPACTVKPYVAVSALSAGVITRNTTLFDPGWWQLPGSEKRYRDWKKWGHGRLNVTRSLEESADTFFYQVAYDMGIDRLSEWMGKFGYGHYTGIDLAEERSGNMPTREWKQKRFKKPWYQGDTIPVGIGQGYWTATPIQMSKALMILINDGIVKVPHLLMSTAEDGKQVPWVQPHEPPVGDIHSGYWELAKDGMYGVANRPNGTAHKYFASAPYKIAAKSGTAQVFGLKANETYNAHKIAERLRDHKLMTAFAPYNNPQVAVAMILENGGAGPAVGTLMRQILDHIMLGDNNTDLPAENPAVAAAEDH

EfA (acceptor FRET efficiency) [1]: 10.8% | EfA (acceptor FRET efficiency) [2]: 10.2%
B1: RodA (wild type), fused to mCherry or to mKO (enzyme, E. coli, UniProt P0ABG7 1-370, looked up)
chain: MTDNPNKKTFWDKVHLDPTMLLILLALLVYSALVIWSASGQDIGMMERKIGQIAMGLVIMVVMAQIPPRVYEGWAPYLYIICIILLVAVDAFGAISKGAQRWLDLGIVRFQPSEIAKIAVPLMVARFINRDVCPPSLKNTGIALVLIFMPTLLVAAQPDLGTSILVALSGLFVLFLSGLSWRLIGVAVVLVAAFIPILWFFLMHDYQRQRVMMLLDPESDPLGAGYHIIQSKIAIGSGGLRGKGWLHGTQSQLEFLPERHTDFIFAVLAEELGLVGILILLALYILLIMRGLWIAARAQTTFGRVMAGGLMLILFVYVFVNIGMVSGILPVVGVPLPLVSYGGSALIVLMAGFGIVMSIHTHRKMLSKSV
notes: RodA, peptidoglycan glycosyltransferase of the E. coli elongasome; wild-type rodA gene; mCh-RodA in all others; also called mCh-RodA; mKO-RodA; source: E. coli LMC500, expressed from plasmid (15 uM IPTG), in fixed cells; not shown: mCherry (acceptor construct, pSAV047-RodA) or mKO (donor construct, pXL56), N-terminal, kept
